Values belong to the binder of their own block, whether it stands above or below them.
How the values were obtained:
[1] = target: ER anchored mCh (mCh fused with human Sac1 residues 521-587) (human) (UniProt Q9NTJ5); assay: cytosol-to-ER translocation in HeLa cells under light
[2] = target: Mito-mCh (AKAP1-mCh, mitochondria-anchored mCherry) (human) (UniProt Q92667); assay: cytosol-to-mitochondria translocation in HeLa cells under light
[3] = target: Mito-mCh (AKAP1-mCh, mitochondria-anchored mCherry) (human) (UniProt Q92667); assay: Mito-to-cytosol ratio of GFP-rapabody in HeLa cells against rapamycin dose; the concentration is that of rapamycin, not of a protein
[4] = target: Mito-mCh (AKAP1-mCh, mitochondria-anchored mCherry) (human) (UniProt Q92667); assay: mitochondria translocation assay in HeLa cells, 5 µM caffeine
[5] = target: Mito-mCh (AKAP1-mCh, mitochondria-anchored mCherry) (human) (UniProt Q92667); assay: mitochondria translocation assay in HeLa cells, caffeine washed out
[6] = target: Mito-mCh (AKAP1-mCh, mitochondria-anchored mCherry) (human) (UniProt Q92667); assay: Mito-to-cytosol ratio of GFP-caffebody in HeLa cells against caffeine dose; the concentration is that of caffeine, not of a protein
[7] = target: NE-tethered SH2 domain of Abl kinase (SH2 fused with mEmerald-lamin A) (UniProt P00519); assay: NE/NP ratio of mCh signal in HeLa cells over light-dark cycles

fold increase in the signal-to-background ratio against 1x sunbody [1]: > 2 fold
fold increase in the signal-to-background ratio against 1x sunbody [2]: > 2 fold
B1: GFP-2xsunbody (dimeric concatemer of sunbody) (VHH, not shown: large carriers)
chain: LATTLERIEKNFVITDPRLPDNPIIFASDSFLQLTEYSREEILGRNCRFLQGPETDRATVRKIRDAIDNQTEVTVQLINYTKSGKKFWNLFHLQPMRDQKGDVQYFIGVQLDGTEHVRDAAEREGVMLIKKTAENIDEAAKELKLMAQVQLVESGGGLVQAGGSLRLSCAVSGRPFSEYNLGWFRQAPGKEREFVARIRSSGTTVYTDSVKGRFSASRDNALERIEKNFVITDPRLPDNPIIFASDSFLQLTEYSREEILGRNCRFLQGPETDRATVRKIRDAIDNQTEVTVQLINYTKSGKKFWNLFHLQPMRDQKGDVQYFIGVQLDGTEHVRDAAEREGVMLIKKTAENIDEAAKNMGYLQLNSLEPEDTAVYYCAMSRVDTDSPAFYDYWGQGTQVTVSTPRSLATTLERIEKNFVITDPRLPDNPIIFASDSFLQLTEYSREEILGRNCRFLQGPETDRATVRKIRDAIDNQTEVTVQLINYTKSGKKFWNLFHLQPMRDQKGDVQYFIGVQLDGTEHVRDAAEREGVMLIKKTAENIDEAAKELKLMAQVQLVESGGGLVQAGGSLRLSCAVSGRPFSEYNLGWFRQAPGKEREFVARIRSSGTTVYTDSVKGRFSASRDNALERIEKNFVITDPRLPDNPIIFASDSFLQLTEYSREEILGRNCRFLQGPETDRATVRKIRDAIDNQTEVTVQLINYTKSGKKFWNLFHLQPMRDQKGDVQYFIGVQLDGTEHVRDAAEREGVMLIKKTAENIDEAAKNMGYLQLNSLEPEDTAVYYCAMSRVDTDSPAFYDYWGQGTQVTVSTPRS

EC50 of rapamycin (dose of the small-molecule switch) for release from the antigen [3]: 1600 nM
B2: GFP-rapabody (anti-mCh nanobody LaM8 with UniRapR in the S3 loop) (VHH, not shown: large carriers)
chain: QLVESGGGLVQAGGSLRLSCAVSGRPFSEYNLGWFRQAPGKEREFVARIRSSGTTVYTDSVKGRFSASRDNATCVVHYTGMLEDGKKFDSSRDRNKPFKFMLGKQEVIRGWEEGVAQMSVGQRAKLTISPDYAYGATGHGSGSGSGVKDLLQAWDLYYHVFRRISGPPGPGSGLWHEMWHEGLEEASRLYFGERNVKGMFEVLEPLHAMMERGPQTLKETSFNQAYGRDLMEAQEWCRKYMKSGSSGGSGSGIIPPHATLVFDVELLKLEKNMGYLQLNSLEPEDTAVYYCAMSRVDTDSPAFYDYWGQGTQVTVSTPRS

half-life of caffeine-induced translocation to the antigen (t½, on) [4]: 16.3 s
deactivation half-life after withdrawal of caffeine [5]: 23.6 s
EC50 of caffeine (dose of the small-molecule switch) for binding to the antigen [6]: 2300 nM
B3: GFP-caffebody (anti-mCh nanobody LaM8 with 2xacVHH in the S3 loop) (VHH, not shown: large carriers)
chain: MAQVQLVESGGGLVQAGGSLRLSCAVSGRPFSEYNLGWFRQAPGKEREFVARIRSSGTTVYTDSVKGRFSASRDNAEVQLQASGGGLVQAGGSLRLSCTASGRTGTIYSMAWFRQAPGKEREFLATVGWSSGITYYMDSVKGRFTISRDNAKNSAYLQMNSLKPEDTAVYYCTATRAYSVGYDYWGQGTQVTVSHAAAGAPVPYPDPLEPREQKLISEEDLLEAVYSGGGGGGGSGGGGGGGSGGGGGGGSGEVQLQASGGGLVQAGGSLRLSCTASGRTGTIYSMAWFRQAPGKEREFLATVGWSSGITYYMDSVKGRFTISRDNAKNSAYLQMNSLKPEDTAVYYCTATRAYSVGYDYWGQGTQVTVSKNMGYLQLNSLEPEDTAVYYCAMSRVDTDSPAFYDYWGQGTQVTVSTPRS

activation half-life (light-induced dissociation from the antigen) [7]: 7.8 s
deactivation half-life (return to the antigen in the dark) [7]: 46.5 s
B4: mCh-moonbody (anti-SH2 moonbody, variant S5.1) (designed binder, not shown: large carriers)
chain: VSSVPTKLEVVDATPTSLKISWDAYYSSWQNVKYYRITYGETGGDSPVQEFTVPGYYSTATISGLKPGSGLATTLERIEKNFVITDPRLPDNPIIFASDSFLQLTEYSREEILGRNCRFLQGPETDRATVRKIRDAIDNQTEVTVQLINYTKSGKKFWNLFHLQPMRDQKGDVQYFIGVQLDGTEHVRDAAEREGVMLIKKTAENIDEAAKELGVDYTITVYAYDTFFPGYEPNSPISINYRT

Source: US20250122266A1, “SMART SINGLE-DOMAIN INTRABODIES WITH PRECISION SWITCHES FOR BIOMEDICAL APPLICATIONS” (THE TEXAS A&M UNIVERSITY SYSTEM, priority 2020, published 2025)
